According to patent US9975933B2, “Tumor tissue-penetrating peptide specific to neuropilin and fusion protein having same peptide fused therein” (AJOU UNIVERSITY INDUSTRY-ACADEMIC COOPERATION FOUNDATION, priority 2013, dated 2018):

Experiments:
[1] = biological target: T1, NRP1-b1b2 (b1b2 domain of neuropilin-1) (Homo sapiens, UniProt O14786); assay: SPR (Biacore2000) binding to b1b2 domain of neuropilin-1; conditions: for Association rate ka / Dissociation rate kd / Kd: NRP1-b1b2, SPR; for Kd: read-out: Binding affinity KD
T1 construct: b1b2 domains (273-586) of neuropilin-1
Method: (§1) Specifically, each b1b2 domain of neuropilin-1 and -2 was diluted with 10 mM Na-acetate buffer (pH 4.0), and fixed onto CMS sensor chips (GE healthcare, USA) in about 1000 response units (RU). […] After bond and dissociation analysis, the regeneration of CMS chip was performed by streaming a buffer (20 Mm NaOH, 1 M NaCl, pH 10.0) at a stream velocity 30 μl/min for 1 minute.

[2] = biological target: T2, NRP2-b1b2 (b1b2 domain of neuropilin-2) (Homo sapiens, UniProt O60462); assay: SPR (Biacore2000) binding to b1b2 domain of neuropilin-2; conditions: for Kd: read-out: Binding affinity KD
T2 construct: b1b2 domains (275-595) of neuropilin-2
T2 sequence (O60462 275-595): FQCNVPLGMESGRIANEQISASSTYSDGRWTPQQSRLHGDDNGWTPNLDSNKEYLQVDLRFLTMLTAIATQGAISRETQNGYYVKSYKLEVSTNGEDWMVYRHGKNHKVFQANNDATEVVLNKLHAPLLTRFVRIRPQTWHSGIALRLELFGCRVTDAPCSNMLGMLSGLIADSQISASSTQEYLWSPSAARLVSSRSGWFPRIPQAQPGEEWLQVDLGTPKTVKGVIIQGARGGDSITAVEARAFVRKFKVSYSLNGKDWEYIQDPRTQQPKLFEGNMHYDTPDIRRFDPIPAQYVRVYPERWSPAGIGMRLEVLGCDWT
Method: as §1

[3] = test system: neuropilin-1 and -2 expressed on cell surface (SK-OV-3); assay: FACS binding to neuropilin-1 and -2 expressed on cell surface; type: cell-based, human
Method: Specifically, after incubating human ovarian cancer cell line (SK-OV-3) under conditions of 5% CO2 and 37° C., 1×10^5 cells per sample were resuspended in a PBS buffer supplemented with 2% BSA and transferred to a FACS tube for conducting experiments.
Then, the mixture was reacted with cell line SK-OV-3 at 4° C. for 1 hour in the same manner and proteins were stained for conducting FACS analysis. […] This means that Fc-TPP binds specifically to neuropilin-1 and -2.
This means that the binding of Fc-TPP to neuropilin-1 and -2 is specific similar to the original ligands.

PPC-1 cells = assay: Confocal microscopy of intracellular penetration and co-localization with neuropilin; type: cell-based, human; conditions: 1 μM, 37° C., 1 hour
Method: In order to confirm whether Fc-TPP has intracellular penetrating capacity by neuropilin-1 and -2, like other neuropilin ligands having intracellular penetrating capacity, confocal microscopy was used to observe intracellular penetration and co-localization with neuropilin-1 and -2.
Specifically, 5×10^4 PPC-1 cells were plated into 24-well plates containing DMEM medium 0.5 ml supplemented with 10% FBS per well, followed by incubation at 37° C. for 24 hours at 5% CO2. When the cells were stabilized, each well was washed with PBS 0.5 ml. […] After the medium was removed and each well was washed with PBS, Fc-TPP was stained with an antibody (Sigma) which specifically recognizes the FITC (green fluorescence)-conjugated Fc, and neuropilin-1 and -2 was stained with a primary antibody (SantaCruz) which recognizes each of them and with a TRITC (red fluorescence)-conjugated secondary antibody (Sigma). Nuclei were stained (blue fluorescence) with DAPI and observed under confocal microscopy.

VE-cadherin in HUVEC = assay: Western blot of VE-cadherin in HUVEC; type: cell-based, human; conditions: single peptides and Fc-TPP 1 μM, 10 minutes
Description: During this process, a decrease in vascular endothelial (VE)-cadherin, phosphorylation, etc. of endothelial cells occur. That is, VE-cadherin or epithelial (E)-cadherin involves in adhesion between endothelial cells, while forming the base of adherent junction between endothelial cells and epithelial cells. The change in molecules relieve the density of adherent junction, which results in increasing permeability of blood vessels and improving intracellular permeability.
As an experimental method for indirectly confirming improvement of vascular permeability based thereon, a change in VE-cadherin was confirmed through a Western blot. Specifically, HUVECs were seeded into 6-well plates at a density of 3×10^5 per well, followed by incubation for 24 hours. Thereafter, single peptides and Fc-TPP were treated with 1 μM for 10 minutes to perform a Western blot. Gel subjected to SDS-PAGE was transported into PVDF membrane, a primary antibody (SantaCruz) and an HRP-conjugated secondary antibody (SantaCruz) which recognize VE-cadherin and (3-actin, respectively were used for detection. ImageQuant LAS4000 mini (GE Healthcare) was used for analysis.

HUVEC [4] = assay: Transwell assay of vascular endothelial cell permeability; type: cell-based, human; conditions: 30 minutes
Method: Based on the above experimental results, as experiments for confirming the improvement of vascular endothelial cell permeability, single peptides and Fc-TPP were treated to conduct Transwell assay.
Specifically, HUVECs were seeded into Transwell plate (Corning) at a density of 5×10^4 per well in a upper chamber using Endothelial Growth Medium, PromoCell (EGM) medium, followed by incubation at 37° C. for 3 days under 5% CO2 condition. […] Thereafter, Dextran-FITC (Sigma) 50 μg was put into the upper chamber and the medium of the lower chamber was sampled to measure its fluorescence after 30 minutes, using the principle that a fluorescent substance is observed in the lower chamber when the permeability in HUVECs was improved.

E-cadherin in FaDu = assay: Western blot of E-cadherin in FaDu; type: cell-based, human
Method: In order to confirm the effect of TPP on cancer cells, a change in E-cadherin was analyzed in human head and neck cancer cell line FaDu, under the same conditions as above experiments through Western blot.

FaDu tumor = assay: In vivo Evans Blue assay of vascular permeability; parameters: species or system Balb/c nude mice; conditions: FaDu xenograft, 400 ng, 40 minutes
Method: Additionally, in order to confirm the improvement of vascular permeability in vivo, Evans Blue assay was conducted. […] 40 minutes after injection, the mice were perfused through the heart with PBS containing 1% BSA, and tumor tissues were extracted (FIG. 11d). Then, the extracted tissues were put into 1 ml of […] (Sigma) and reacted at 37° C. overnight under mild shaking condition. Thereafter, the supernatant was obtained from centrifugation to measure the absorbance (600 nm), and the amount that Evans Blue penetrated was quantified.

HUVEC [5] = assay: Tube formation assay in HUVEC; type: cell-based, human; conditions: VEGF165A 20 ng/ml, 8 hours
Method: As an experiment confirming angiogenesis in vitro based thereon, tube formation assay was conducted. As an experimental method, 50 μl of ECMatrix was injected into 96-well plates and polymerized at 37° C. for 2 hours. […] The incubated cells were observed by a microscope to obtain images.

A431 tumor = assay: IHC of Fc-TPP infiltration in A431 tumor tissue; type: in vivo, Balb/c nude mice; conditions: A431 xenograft, 5 mg/kg intravenously, 3 hours
Method: 3 hours after injection, tumors were extracted from mice to conduct immunohistochemistry experiment. The extracted tumors were cut into 20 μm thick using a frozen section method, and stained with a primary antibody, CD31 antibody (BD Pharmingen), and a TRITC (red fluorescence)-conjugated secondary antibody. Further, in order to observe Fc-TPP distributed in the tissues, FITC (green fluorescence)-conjugated antibodies recognizing Fc were used.

[6] = single peptides and Fc-TPP 1 μM

T1 sequence (O14786 273-586): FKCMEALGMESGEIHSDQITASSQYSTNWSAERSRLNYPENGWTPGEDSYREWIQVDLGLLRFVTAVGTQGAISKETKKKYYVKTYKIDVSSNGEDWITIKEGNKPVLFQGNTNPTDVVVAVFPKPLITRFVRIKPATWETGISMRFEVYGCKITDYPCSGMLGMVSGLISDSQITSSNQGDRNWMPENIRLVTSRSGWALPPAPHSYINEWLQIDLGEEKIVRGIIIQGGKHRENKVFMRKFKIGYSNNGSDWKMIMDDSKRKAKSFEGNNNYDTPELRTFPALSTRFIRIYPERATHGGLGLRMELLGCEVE

Substance	Association rate ka [1]	Dissociation rate kd [1]	Kd [1]	Association rate ka [2]	Dissociation rate kd [2]	Kd [2]	cell binding capacity after reaction in advance with b1b2 domains of neuropilin-1 and -2 ([3]; 1 μM protein, 2 μM b1b2 domains, SK-OV-3)	cell binding capacity when mixed with parent ligand Sema3A or Sema3F ([3]; Sema3A (Fc-15A22P) / Sema3F (Fc-15F22P) 100 μg/ml)	cell binding capacity when mixed with VEGF165A ([3]; VEGF165A 1 μg/ml)	co-localization with neuropilin-1 and -2 (PPC-1 cells)	intracellular penetration (confocal microscopy) (PPC-1 cells)	change in VE-cadherin (Western blot) (VE-cadherin in HUVEC)	permeability of HUVEC (Transwell, Dextran-FITC) (HUVEC [4]; [6])	change in E-cadherin (Western blot) (E-cadherin in FaDu)	permeability of HUVEC (Transwell, Dextran-FITC) (HUVEC [4]; control ligands about 1.3 nM)	vascular permeability (Evans Blue) (FaDu tumor)	tube formation of HUVEC (HUVEC [5])	difference in binding affinity between GAGA linker and (GGGGS)3 linker clones ([1]; Fc-4A22 compared with Fc-15A22, b1b2 of neuropilin-1 and -2)	infiltration into tumor tissue (IHC) (A431 tumor)
Fc-15F22p: Human IgG1 Fc with TPP 15F22p (SEQ ID NO: 10) fused to its C-terminus (GGGGSGGGGSGGGGSREAPGAPRSPEPQDQKKPRPRR)	1.73 ± 0.26 × 10^4 M^−1s^−1	1.38 ± 0.12 × 10^−3 s^−1	0.0797 µM	1.34 ± 0.24 × 10^4 M^−1s^−1	1.23 ± 0.16 × 10^−3 s^−1	0.0924 µM	remarkably reduced	reduced	reduced	co-localized with neuropilin-1 and -2	penetrated into cells	induced a decrease in VE-cadherin	improvement of vascular permeability was induced	E-cadherin was decreased					
VEGF165: Vascular endothelial cell growth factor-A isoform, neuropilin ligand, control group [reference compound]	9.75 ± 0.53 × 10^5 M^−1s^−1	3.42 ± 0.29 × 10^−3 s^−1		1.17 ± 0.12 × 10^5 M^−1s^−1	3.73 ± 0.19 × 10^−3 s^−1							a decrease in VE-cadherin was observed			permeability of HUVEC was improved	increased vascular permeability	increased tube formation		
Fc-15A22: Human IgG1 Fc with TPP 15A22 (SEQ ID NO: 6) fused to its C-terminus (GGGGSGGGGSGGGGSHTPGNSNKWKHLQENKKGRNRR)	4.86 ± 0.98 × 10^3 M^−1s^−1	2.95 ± 0.04 × 10^−2 s^−1	6.06 µM	3.94 ± 0.42 × 10^3 M^−1s^−1	3.87 ± 0.09 × 10^−2 s^−1	9.8 µM						VE-cadherin was decreased	permeability of HUVEC was improved	induced a decrease in E-cadherin				about 10 times	infiltrated into tumor cells
